We go through two molecules from article PMC12924673 (Science (New York, N.Y.), 2024).

In data set [1] the target is recombinant ZnF0 of BCL11A. As to the kind of experiment: dynamic light scattering.
In data set [2] the target is recombinant ZnF0 of BCL11A. As to the kind of experiment: native gel or EMSA. In general terms: A gel shift assay detects complexes by their altered migration in electrophoresis.
Data set [3] concerns the target recombinant ZnF0 of BCL11A. Briefly: crystal structure.
Data set [4] concerns the target recombinant ZnF0 of BCL11A. Briefly: AUC.
The data set “native gel or EMSA” concerns the molecule itself. As to the kind of experiment: native gel or EMSA.

One may read the stoichiometry N as a count of units in the complex or per binding partner. Take “recombinant ZnF0 of BCL11A (domain or fragment)”: the stoichiometry N in data set [1], in data set [2], in data set [3] and in data set [4] was 4 each time.

B1: full-length (FL) BCL11A, recombinant (natural protein, UniProt Q9H165-1 1-835, looked up)
chain: MSRRKQGKPQHLSKREFSPEPLEAILTDDEPDHGPLGAPEGDHDLLTCGQCQMNFPLGDILIFIEHKRKQCNGSLCLEKAVDKPPSPSPIEMKKASNPVEVGIQVTPEDDDCLSTSSRGICPKQEHIADKLLHWRGLSSPRSAHGALIPTPGMSAEYAPQGICKDEPSSYTCTTCKQPFTSAWFLLQHAQNTHGLRIYLESEHGSPLTPRVGIPSGLGAECPSQPPLHGIHIADNNPFNLLRIPGSVSREASGLAEGRFPPTPPLFSPPPRHHLDPHRIERLGAEEMALATHHPSAFDRVLRLNPMAMEPPAMDFSRRLRELAGNTSSPPLSPGRPSPMQRLLQPFQPGSKPPFLATPPLPPLQSAPPPSQPPVKSKSCEFCGKTFKFQSNLVVHRRSHTGEKPYKCNLCDHACTQASKLKRHMKTHMHKSSPMTVKSDDGLSTASSPEPGTSDLVGSASSALKSVVAKFKSENDPNLIPENGDEEEEEDDEEEEEEEEEEEEELTESERVDYGFGLSLEAARHHENSSRGAVVGVGDESRALPDVMQGMVLSSMQHFSEAFHQVLGEKHKRGHLAEAEGHRDTCDEDSVAGESDRIDDGTVNGRGCSPGESASGGLSKKLLLGSPSSLSPFSKRIKLEKEFDLPPAAMPNTENVYSQWLAGYAASRQLKDPFLSFGDSRQSPFASSSEHSSENGSLRFSTPPGELDGGISGRSGTGSGGSTPHISGPGPGRPSSKEGRRSDTCEYCGKVFKNCSNLTVHRRSHTGERPYKCELCNYACAQSSKLTRHMKTHGQVGKDVYKCEICKMPFSVYSTLEKHMKKWHSDRVLNNDIKTE
Regarding B1, the binding result in the data set “native gel or EMSA” is recorded as “binds”.
